Measurements as given in patent publication US20120225824A1.

Biological target: MIS type II receptor (MISRII) (human) (UniProt Q16671)
Assay: cell-based or functional assay

Sequence of UniProt Q16671 (Q16671 18-573): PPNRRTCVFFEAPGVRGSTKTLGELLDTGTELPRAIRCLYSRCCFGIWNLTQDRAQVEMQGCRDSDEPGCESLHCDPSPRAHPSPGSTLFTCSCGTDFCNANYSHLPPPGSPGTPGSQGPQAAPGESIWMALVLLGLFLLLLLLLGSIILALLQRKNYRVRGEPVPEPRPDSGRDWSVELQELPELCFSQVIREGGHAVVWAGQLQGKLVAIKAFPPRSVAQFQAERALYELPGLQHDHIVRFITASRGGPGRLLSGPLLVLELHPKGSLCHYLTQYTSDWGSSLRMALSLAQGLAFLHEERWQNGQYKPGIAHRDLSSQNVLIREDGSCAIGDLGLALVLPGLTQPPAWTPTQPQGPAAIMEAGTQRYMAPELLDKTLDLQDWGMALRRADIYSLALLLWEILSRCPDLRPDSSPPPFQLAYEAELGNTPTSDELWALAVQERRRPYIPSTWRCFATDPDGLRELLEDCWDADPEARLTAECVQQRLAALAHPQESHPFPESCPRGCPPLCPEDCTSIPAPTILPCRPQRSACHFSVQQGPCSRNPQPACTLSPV

## rhMIS (R&D Systems, Minneapolis, Minn.) (from UniProt P03971 452-560) (ligand)
  decrease in viable cells (cultured endometrial cells, rhMIS 100 ng/mL, 72 hours): 14%

## MIS over-expressed from an MIS protein expression construct (ligand)
  decrease in cell proliferation (cultured endometrial cells transiently transfected with an MIS protein expression construct): 8%
